Assay results from PMC7801515.
pKd: −log10 of the molar value. “And” between values parts separate entries of the source, which are not always exact repeats. Identical values can stand only once. Like-named read-outs stand apart in the source and are kept apart here.

Tests used:
Experiment in all cases: SPR
[1] = biological target: P2B-2F6 monoclonal antibody (human)
[2] = biological target: SARS-CoV-2 receptor-binding domain (RBD), residues Arg319 to Lys529 (SARS-CoV-2) (UniProt P0DTC2)
[3] = biological target: SARS-CoV-2 receptor-binding domain (RBD), residues Arg319 to Lys529 (SARS-CoV-2) (UniProt P0DTC2); remark: listed apart in the source

Row | Substance | pKd [1] | pKd [2] | koff [2] | pKd [3] | koff [3]
1 | SARS-CoV-2 receptor-binding domain (RBD), residues Arg319 to Lys529 (from UniProt P0DTC2 319-529) (domain or fragment) | 7.81 |  |  |  | 
2 | P2C-1F11 monoclonal antibody |  | 8.96 and 8.57 and 8.86 | 0.00263 s⁻¹ and 0.00303 s⁻¹ and 0.00213 s⁻¹ | 8.62 | 
3 | P2B-2F6 monoclonal antibody |  |  |  | 7.72 and 7.86 and 7.85 | 0.102 s⁻¹ and 0.0911 s⁻¹
